From PMC11446282 (2024)

B1: PME1 (found with purified B55 variants) [human] / B55α WT (immunopurified, Fig. 2) [not stated] (parent complex)
chain 1: MSALEKSMHLGRLPSRPPLPGSGGSQSGAKMRMGPGRKRDFSPVPWSQYFESMEDVEVENETGKDTFRVYKSGSEGPVLLLLHGGGHSALSWAVFTAAIISRVQCRIVALDLRSHGETKVKNPEDLSAETMAKDVGNVVEAMYGDLPPPIMLIGHSMGGAIAVHTASSNLVPSLLGLCMIDVVEGTAMDALNSMQNFLRGRPKTFKSLENAIEWSVKSGQIRNLESARVSMVGQVKQCEGITSPEGSKSIVEGIIEEEEEDEEGSESISKRKKEDDMETKKDHPYTWRIELAKTEKYWDGWFRGLSNLFLSCPIPKLLLLAGVDRLDKDLTIGQMQGKFQMQVLPQCGHAVHEDAPDKVAEAVATFLIRHRFAEPIGGFQCVFPGC
chain 2: MAGAGGGNDIQWCFSQVKGAVDDDVAEADIISTVEFNHSGELLATGDKGGRVVIFQQEQENKIQSHSRGEYNVYSTFQSHEPEFDYLKSLEIEEKINKIRWLPQKNAAQFLLSTNDKTIKLWKISERDKRPEGYNLKEEDGRYRDPTTVTTLRVPVFRPMDLMVEASPRRIFANAHTYHINSISINSDYETYLSADDLRINLWHLEITDRSFNIVDIKPANMEELTEVITAAEFHPNSCNTFVYSSSKGTIRLCDMRASALCDRHSKLFEEPEDPSNRSFFSEIISSISDVKFSHSGRYMMTRDYLSVKIWDLNMENRPVETYQVHEYLRSKLCSLYENDCIFDKFECCWNGSDSVVMTGSYNNFFRMFDRNTKRDITLEASRENNKPRTVLKPRKVCASGKRKKDEISVDSLDFNKKILHTAWHPKENIIAVATTNNLYIFQDKVN

Variants of: B1
Assay: immunopurification of YFP-B55α variants (IP: YFP), Western blot quantification; read off a plot

Variant	percent of parent [%]
chain 2 MAGAGGGNDIQWCFSQVKGAVDDDVAEADIISTVEFNHSGELLATGDKGGRVVIFQQEQENKIQSHSRGEYNVYSTFQSHEPEFDYLKSLEIEEKINKIRWLPQKNAAQFLLSTNDKTIKLWKISERDKRPEGYNLKEEDGRYRDPTTVTTLRVPVFRPMDLMVEASPRRIFANAHTYHINSISINSDYETYLSADDLRINLWHLEITDRSFNIVDIKPANMEELTEAITAAEFHPNSCNTFVYSSSKGTIRLCDMRASALCDRHSKLFEEPEDPSNRSFFSEIISSISDVKFSHSGRYMMTRDYLSVKIWDLNMENRPVETYQVHEYLRSKLCSLYENDCIFDKFECCWNGSDSVVMTGSYNNFFRMFDRNTKRDITLEASRENNKPRTVLKPRKVCASGKRKKDEISVDSLDFNKKILHTAWHPKENIIAVATTNNLYIFQDKVN [chain 2 V228A]	~9
chain 2 MAGAGGGNDIQWCFSQVKGAVDDDVAEADIISTVEFNHSGELLATGDKGGRVVIFQQEQENKIQSHSRGEYNVYSTFQSHEPEFDYLKSLEIEEKINKIRWLPQKNAAQFLLSTNDKTIKLWKISERDKRPEGYNLKEEDGRYRDPTTVTTLRVPVFRPMDLMVEASPRRIFANAHTYHINSISINSDYETYLSADALRINLWHLEITDRSFNIVDIKPANMEELTEVITAAEFHPNSCNTFVYSSSKGTIRLCDMRASALCDRHSKLFEEPEDPSNRSFFSEIISSISDVKFSHSGRYMMTRDYLSVKIWDLNMENRPVETYQVHEYLRSKLCSLYENDCIFDKFECCWNGSDSVVMTGSYNNFFRMFDRNTKRDITLEASRENNKPRTVLKPRKVCASGKRKKDEISVDSLDFNKKILHTAWHPKENIIAVATTNNLYIFQDKVN [chain 2 D197A]	~3
chain 2 MAGAGGGNDIQWCFSQVKGAVDDDVAEADIISTVEFNHSGELLATGDKGGRVVIFQQEQENKIQSHSRGEYNVYSTFQSHEPEFDYLKSLEIEEKINKIRWLPQKNAAQFLLSTNDKTIKLWKISERDKRPEGYNLKEEDGRYRDPTTVTTLRVPVFRPMDLMVEASPRRIFANAHTYHINSISINSDYETYLSADDLRINLWHLEITDRSFNIVDIKPANMEELTEVITAAEFHPNSCNTFVYSSSKGTIRLCDMRASALCDRHSKLFEEPEDPSNRSFFSEIISSISDVKFSHSGRYMMTRDYLSVKIWDLNMENRPVETYQVHEYLRSKLCSLAENDCIFDKFECCWNGSDSVVMTGSYNNFFRMFDRNTKRDITLEASRENNKPRTVLKPRKVCASGKRKKDEISVDSLDFNKKILHTAWHPKENIIAVATTNNLYIFQDKVN [chain 2 Y337A]	~53
chain 2 MAGAGGGNDIQWCFSQVKGAVDDDVAEADIISTVEFNHSGELLATGDKGGRVVIFQQEQENKIQSHSRGEYNVYSTFQSHEPEFDYLKSLEIEEKINKIRWLPQKNAAQFLLSTNDKTIKLWKISERDKRPEGYNLKEEDGRYRDPTTVTTLRVPVFRPMDLMVEASPRRIFANAHTYHINSISINSDYETYLSADDLRINLWHLEITDRSFNIVDIKPANMEELTEVITAAEFHPNSCNTFVYSSSKGTIRLCDMRASALCDRHSKLFEEPEDPSNRSAFSEIISSISDVKFSHSGRYMMTRDYLSVKIWDLNMENRPVETYQVHEYLRSKLCSLYENDCIFDKFECCWNGSDSVVMTGSYNNFFRMFDRNTKRDITLEASRENNKPRTVLKPRKVCASGKRKKDEISVDSLDFNKKILHTAWHPKENIIAVATTNNLYIFQDKVN [chain 2 F280A]	~130
chain 2 MAGAGGGNDIQWCFSQVKGAVDDDVAEADIISTVEFNHSGELLATGDKGGRVVIFQQEQENKIQSHSRGEYNVYSTFQSHEPEFDYLKSLEIEEKINKIRWLPQKNAAQFLLSTNDKTIKLWKISERDKRPEGYNLKEEDGRYRDPTTVTTLRVPVFRPMDLMVEASPRRIFANAHTYHINSISINSDYETYLSADDLRINLWHLEITDRSFNIVDIKPANMEELTEVITAAEFHPNSCNTFVYSSSKGTIRLCDMRASALCDRHSKLFEEPEDPSNRSFFSEIISAISDVKFSHSGRYMMTRDYLSVKIWDLNMENRPVETYQVHEYLRSKLCSLYENDCIFDKFECCWNGSDSVVMTGSYNNFFRMFDRNTKRDITLEASRENNKPRTVLKPRKVCASGKRKKDEISVDSLDFNKKILHTAWHPKENIIAVATTNNLYIFQDKVN [chain 2 S287A]	~4
chain 2 MAGAGGGNDIQWCFSQVKGAVDDDVAEADIISTVEFNHSGELLATGDKGGRVVIFQQEQENKIQSHSRGEYNVYSTFQSHEPEFDYLKSLEIEEKINKIRWLPQKNAAQFLLSTNDKTIKLWKISERDKRPEGYNLKEEDGRYRDPTTVTTLRVPVFRPMDLMVEASPRRIFANAHTYHINSISINSDYETYLSADDARINLWHLEITDRSFNIVDIKPANMEELTEVITAAEFHPNSCNTFVYSSSKGTIRLCDMRASALCDRHSKLFEEPEDPSNRSFFSEIISSISDVKFSHSGRYMMTRDYLSVKIWDLNMENRPVETYQVHEYLRSKLCSLYENDCIFDKFECCWNGSDSVVMTGSYNNFFRMFDRNTKRDITLEASRENNKPRTVLKPRKVCASGKRKKDEISVDSLDFNKKILHTAWHPKENIIAVATTNNLYIFQDKVN [chain 2 L198A]	~2
chain 2 MAGAGGGNDIQWCFSQVKGAVDDDVAEADIISTVEFNHSGELLATGDKGGRVVIFQQEQENKIQSHSRGEYNVYSTFQSHEPEFDYLKSLEIEEKINKIRWLPQKNAAQFLLSTNDKTIKLWKISERDKRPEGYNLKEEDGRYRDPTTVTTLRVPVFRPMDLMVEASPRRIFANAHTYHINSISINSDYETYLSADDLRINLWHLEITDRSFNIVDIKPANMEELTEVITAAEFHPNSCNTFVYSSSKGTIRLCDMRASALCDRHSKLFEEPEDPSNRSFFSEAISSISDVKFSHSGRYMMTRDYLSVKIWDLNMENRPVETYQVHEYLRSKLCSLYENDCIFDKFECCWNGSDSVVMTGSYNNFFRMFDRNTKRDITLEASRENNKPRTVLKPRKVCASGKRKKDEISVDSLDFNKKILHTAWHPKENIIAVATTNNLYIFQDKVN [chain 2 I284A]	~13
chain 2 MAGAGGGNDIQWCFSQVKGAVDDDVAEADIISTVEFNHSGELLATGDKGGRVVIFQQEQENKIQSHSRGEYNVYSTFQSHEPEFDYLKSLEIEEKINKIRWLPQKNAAQFLLSTNDKTIKLWKISERDKRPEGYNLKEEDGRYRDPTTVTTLRVPVFRPMDLMVEASPRRIFANAHTAHINSISINSDYETYLSADDLRINLWHLEITDRSFNIVDIKPANMEELTEVITAAEFHPNSCNTFVYSSSKGTIRLCDMRASALCDRHSKLFEEPEDPSNRSFFSEIISSISDVKFSHSGRYMMTRDYLSVKIWDLNMENRPVETYQVHEYLRSKLCSLYENDCIFDKFECCWNGSDSVVMTGSYNNFFRMFDRNTKRDITLEASRENNKPRTVLKPRKVCASGKRKKDEISVDSLDFNKKILHTAWHPKENIIAVATTNNLYIFQDKVN [chain 2 Y178A]	~13
chain 2 MAGAGGGNDIQWCFSQVKGAVDDDVAEADIISTVEFNHSGELLATGDKGGRVVIFQQEQENKIQSHSRGEYNVYSTFQSHEPEFDYLKSLEIEEKINKIRWLPQKNAAQFLLSTNDKTIKLWKISERDKRPEGYNLKEEDGRYRDPTTVTTLRVPVFRPMDLMVEASPRRIFANAHTYHINSISINSDYETYLSADDLRINLWHLEITDRSFNIVDIKPANMEELTEVITAAEFHPNSCNTFVYSSSKGTIRLCDMRASALCDRHSKLFEEPEDPSNRSFFSEIISSISDVKFSHSGRYMMTRDYLSVKIWDLNMENRPVETYQVHEYLRSKLCSLYENDCIADKFECCWNGSDSVVMTGSYNNFFRMFDRNTKRDITLEASRENNKPRTVLKPRKVCASGKRKKDEISVDSLDFNKKILHTAWHPKENIIAVATTNNLYIFQDKVN [chain 2 F343A]	~3
chain 2 MAGAGGGNDIQWCFSQVKGAVDDDVAEADIISTVEFNHSGELLATGDKGGRVVIFQQEQENKIQSHSRGEYNVYSTFQSHEPEFDYLKSLEIEEKINKIRWLPQKNAAQFLLSTNDKTIKLWKISERDKRPEGYNLKEEDGRYRDPTTVTTLRVPVFRPMDLMVEASPRRIFANAHTYHINSISINSDYETYLSADDLRINLWHLEITDRSFNIVDIKPANMEELTEVITAAEFHPNSCNTFVYSSSKGTIRLCDMRASALCDRHSKLFEEPEDPSNRSFFSEIISSISDVKFSHSGRYMMTRDYLSVKIWDLNMENRPVETYQVHEYLRSKLCSLYENACIFDKFECCWNGSDSVVMTGSYNNFFRMFDRNTKRDITLEASRENNKPRTVLKPRKVCASGKRKKDEISVDSLDFNKKILHTAWHPKENIIAVATTNNLYIFQDKVN [chain 2 D340A]	~50
chain 2 MAGAGGGNDIQWCFSQVKGAVDDDVAEADIISTVEFNHSGELLATGDKGGRVVIFQQEQENKIQSHSRGEYNVYSTFQSHEPEFDYLKSLEIEEKINKIRWLPQKNAAQFLLSTNDKTIKLWKISERDKRPEGYNLKEEDGRYRDPTTVTTLRVPVFRPMDLMVEASPRRIFANAHTYHINSISINSDYETYLSADDLRINLWHLEITDRSFNIVDIKPANMEELTEVIAAAEFHPNSCNTFVYSSSKGTIRLCDMRASALCDRHSKLFEEPEDPSNRSFFSEIISSISDVKFSHSGRYMMTRDYLSVKIWDLNMENRPVETYQVHEYLRSKLCSLYENDCIFDKFECCWNGSDSVVMTGSYNNFFRMFDRNTKRDITLEASRENNKPRTVLKPRKVCASGKRKKDEISVDSLDFNKKILHTAWHPKENIIAVATTNNLYIFQDKVN [chain 2 T230A]	~3
chain 2 MAGAGGGNDIQWCFSQVKGAVDDDVAEADIISTVEFNHSGELLATGDKGGRVVIFQQEQENKIQSHSRGEYNVYSTFQSHEPEFDYLKSLEIEEKINKIRWLPQKNAAQFLLSTNDKTIKLWKISERDKRPEGYNLKEEDGRYRDPTTVTTLRVPVFRPMDLMVEASPRRIFANAHTYAINSISINSDYETYLSADDLRINLWHLEITDRSFNIVDIKPANMEELTEVITAAEFHPNSCNTFVYSSSKGTIRLCDMRASALCDRHSKLFEEPEDPSNRSFFSEIISSISDVKFSHSGRYMMTRDYLSVKIWDLNMENRPVETYQVHEYLRSKLCSLYENDCIFDKFECCWNGSDSVVMTGSYNNFFRMFDRNTKRDITLEASRENNKPRTVLKPRKVCASGKRKKDEISVDSLDFNKKILHTAWHPKENIIAVATTNNLYIFQDKVN [chain 2 H179A]	~170
chain 2 MAGAGGGNDIQWCFSQVKGAVDDDVAEADIISTVEFNHSGELLATGDKGGRVVIFQQEQENKIQSHSRGEYNVYSTFQSHEPEFDYLKSLEIEEKINKIRWLPQKNAAQFLLSTNDKTIKLWKISERDKRPEGYNLKEEDGRYRDPTTVTTLRVPVFRPMDLMVEASPRRIFANAHTYHINSISINSDYETYLSADDLRINLWHLEITDRSFNIVDIKPANMEEATEVITAAEFHPNSCNTFVYSSSKGTIRLCDMRASALCDRHSKLFEEPEDPSNRSFFSEIISSISDVKFSHSGRYMMTRDYLSVKIWDLNMENRPVETYQVHEYLRSKLCSLYENDCIFDKFECCWNGSDSVVMTGSYNNFFRMFDRNTKRDITLEASRENNKPRTVLKPRKVCASGKRKKDEISVDSLDFNKKILHTAWHPKENIIAVATTNNLYIFQDKVN [chain 2 L225A]	~3
